{"source": "patent US5648211", "test_system": "BsrI", "assay": "cleavage_in_vitro", "settings": "PS at A in filled-in regions; SDA cycle turnover with Bst polymerase; 60 C, 6 mM MgCl2, 50 mM KCl, pH 7.6"}
{"sequence": "CCACCTCTGACTTGAGCGTCCCAGTGTCAATACGGCGGAGCCTATGGAGTAACGCC / GCAAAAGGCCAGGAACCGATAAAAGGATGCGTTGCTGGCGTTACTCCATAGGCTCCG [linear SDA BsrI duplex (filled in to 92 bp)]", "values": [{"measurement": "activity", "value": 1, "unit": "min⁻¹"}]}
